Experimental data reported in patent US20250163149A1, “ANTI-RAGE ANTIBODY” (Swansea University, priority 2022, published 2025).
Each block holds one molecule with its values, some of them ahead of it.

Tests used:
[1] = molecular target: synthetic peptide S155 of the RAGE V-domain (amino acids 39-65) (human); test: SPR, antibody amine-coupled to a CM5 chip as ligand, peptide S155 (B-Rad) as analyte at 0.25-4 µM, 1:1 binding fit
[2] = molecular target: Human rRAGE, full-length RAGE recombinant protein from Merck (human) (UniProt Q15109); test: SPR, antibody amine-coupled to a CM5 chip as ligand, rRAGE protein as analyte at 0.0156-0.35 µM, 1:1 binding fit
[3] = molecular target: T1, synthetic peptide S155 of the RAGE V-domain (amino acids 39-65) (human); test: SPR (Biacore T200), antibody amine-coupled to a CM5 chip as ligand, RAGE peptide S155 (BioRad) as analyte, multi-cycle kinetics, 1:1 fit; 'No steady state.'
T1 construct: injected as analyte in SPR; also called RAGE synthetic peptide
T1 peptide: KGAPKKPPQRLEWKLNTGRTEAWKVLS
Method: This was followed by diluting the ligand with the appropriate Acetate buffer to at least 10 μg/mL. The ligand immobilization on the surface Series S Sensor Chip CM5 (29-1496-03, Cytiva) was performed using the Amine Coupling Kit (BR100050, Cytiva) containing 1-Etyhyl-3-(3-dimethylaminopropyl)-carbodiimide hydrochloride (EDC), N-Hydroxysuccinimide (NHS) and 1.0M ethanolamine-HcL PH 8.5 in accordance with the manufacturer's instructions. For each experimental run, the ligand was immobilized in flow cells 2 or 4 while flow cells 1 or 3 were left unmodified. […] Following each binding cycle, the surface was regenerated with a 30 s injection of 10 mM Glycine-HcL, pH 2.5 regeneration solution (BR-1003-56), removing the bound antibody with a contact time of 30 s, flow rate of 30 μL/min and a stabilization period of Os. Blank cycles (buffer only injection followed by regeneration step) was also performed. Data was double referenced by first subtracting responses from the reference flow cell and then subtracting the blank cycles. Data was then fitted to a 1:1 binding model using Biacore™ T200 Evaluation Software 2.0 and Biacore™ Insight Evaluation Software.
SPR analysis was subsequently used to evaluate the binding kinetics of the different murine clones to their targets (either using synthetic peptide used to produce the clones or recombinant RAGE protein (Uniprot reference: Q15109-1) Peptide S155=Original peptide from Biorad used to produce the murine clones. Human rRAGE=Full-length RAGE recombinant protein from Merck). The SPR parameters used for this analysis are described in the detailed methods.

[4] = molecular target: T1, synthetic peptide S155 of the RAGE …; test: ELISA, BSA-conjugated peptide S155 on the plate, two-fold dilutions of antibody, HRP anti-mouse, OD 450 nm
Method: FIG. 2: Screening of purified anti-RAGE antibodies by enzyme linked immunosorbent assay (ELISA). BSA-conjugated synthetic peptides of RAGE protein were immobilized onto microplates and incubated with two-fold serial dilutions of antibodies.
A 96-well plate was coated with 5 μg/ml of RAGE synthetic peptides or RAGE recombinant protein diluted in phosphate-buffered saline (pH 7.4) overnight at 4° C. The solution was removed, washed with PBS-Tween (PBST) and the plate was blocked with ELISA ultrablock buffer (Biorad) for 1 h at room temperature. After blocking, the plate was washed with PBST and a range of concentrations of α-RAGE antibodies was applied to the plate for 2 h at room temperature. The plate was washed thoroughly with PBST and incubated with HRP-conjugated anti-mouse antibodies diluted 1:1000 in PBS-Tween. After washes with PBST, TMB Core+ substrate solution (Biorad) was added to each well and incubated at room temperature for 30 minutes. 0.2M H2SO4 was used as a stop solution. Absorbance at 450 nm was measured in a Biorad absorbance microplate reader.
The initial screening of the 6 murine antibody clones against RAGE was undertaken by ELISA. For this evaluation a range of 15 concentrations of each antibody clone was applied to the plate.

[5] = molecular target: T1, synthetic peptide S155 of the RAGE …; test: SPR (Biacore T200), antibody amine-coupled to a CM5 chip as ligand, RAGE Peptide (S155) as analyte, multi-cycle kinetics, 1:1 fit; 'No steady state.'
Method: (§1) Data were then fitted to a 1:1 binding model.
(§2) For on-rate and off-rate screening, Biacore™ T200 system (Cytiva, Uppsala, Sweden) was used to perform SPR analysis with 1×HBS-EP+ buffer (0.01M Hepes, 0.15M NaCl, 0.003M ethylenediaminetetraacetic acid, and 0.05% Surfactant P20, pH 7.4) (BR100669) used as sample and running buffer. The analysis temperature at the sensor chip surface and within the compartment was set to 25° C. Firstly, pH scouting with 10 mM sodium acetate buffer 4.0 (BR-1003-49), 10 mM sodium acetate buffer 4.5 (BR-1003-50), 10 mM sodium acetate buffer 5.0 (BR-1003-51) and 10 mM sodium acetate buffer 5.5 (BR-1003-52) was performed to identify the optimal pH required for ligand (α-RAGE antibodies) immobilization. This was followed by diluting the ligand with the appropriate Acetate buffer to at least 10 μg/mL. The ligand immobilization on the surface Series S Sensor Chip CM5 (29-1496-03, Cytiva) was performed using the Amine Coupling Kit (BR100050, Cytiva) containing 1-Etyhyl-3-(3-dimethylaminopropyl)-carbodiimide hydrochloride (EDC), N-Hydroxysuccinimide (NHS) and 1.0M ethanolamine-HcL PH 8.5 in accordance with the manufacturer's instructions. For each experimental run, the ligand was immobilized in flow cells 2 or 4 while flow cells 1 or 3 were left unmodified.

[6] = molecular target: synthetic peptide S155 of the RAGE V-domain (amino acids 39-65) (human); test: SPR (Biacore T200), antibody amine-coupled to a CM5 chip as ligand, RAGE peptide S155 (BioRad) as analyte, multi-cycle kinetics, 1:1 fit; 'No steady state.'
RAGE = RAGE (Homo sapiens, UniProt Q15109); test: Binding target blocking assay by immunofluorescence on HEC-1A cells; assay type: cell-based; parameters: endogenous in cells; host or cells: HEC-1A (ECACC); conditions: then antibody at 4 μg/ml
Method: To proof that HA9 shares similar binding epitope as other α-RAGE antibodies, an immunofluorescence approach was used. For this purpose, 1.5×10^4 HEC1A cells/well (obtained from the European Collection of Authenticated Cell Cultures, ECACC, Public Health England, UK) were seeded in 8-well chamber slides (Ibidi) in 300 μl of stripped medium and cultured for 24 h in a humidified, 5% CO2 in air atmosphere incubator at 37° C. After culture, cells were fixed with 4% paraformaldehyde (Sigma) for 20 minutes, permeabilized with 0.1% Triton X-100 (Sigma) for 10 minutes at 4° C. and blocked with 3% BSA in PBS for 1 h. Cells were then pre-incubated with a primary antibody against RAGE at a concentration in excess (20 μg/ml in 3% BSA in PBS for 1 h) to block the specific epitope they bind, before cells were incubated with the α-RAGE antibody of interest at 4 μg/ml in 3% BSA-PBS overnight at 4° C. This was followed by 1 h incubation with Alexa-fluorophore-conjugated secondary antibodies. Cells were washed with PBS extensively between all steps, counterstained before imaging with Hoechst (Life Technologies™) and imaged using a LSM710 confocal fluorescence microscopy system (Zeiss, UK). The mean intensity of fluorescence was obtained using imageJ by measuring the integrated density per imaged field, normalised by the number of cells in the respective field and obtaining the mean from >10 fields obtained per condition. A decrease in fluorescence in the pre-blocked condition compared with the not-pre-blocked condition means both antibodies share similar epitope of binding on the same protein.

[7] = molecular target: T1, synthetic peptide S155 of the RAGE …; test: SPR (Biacore T200), antibody amine-coupled to a CM5 chip as ligand, RAGE Peptide (S155) as analyte, multi-cycle kinetics, 1:1 fit
Method: as §1, §2

Chain of Human rRAGE, full-length RAGE recombinant protein from Merck (human) (Q15109 23-404 limits assumed): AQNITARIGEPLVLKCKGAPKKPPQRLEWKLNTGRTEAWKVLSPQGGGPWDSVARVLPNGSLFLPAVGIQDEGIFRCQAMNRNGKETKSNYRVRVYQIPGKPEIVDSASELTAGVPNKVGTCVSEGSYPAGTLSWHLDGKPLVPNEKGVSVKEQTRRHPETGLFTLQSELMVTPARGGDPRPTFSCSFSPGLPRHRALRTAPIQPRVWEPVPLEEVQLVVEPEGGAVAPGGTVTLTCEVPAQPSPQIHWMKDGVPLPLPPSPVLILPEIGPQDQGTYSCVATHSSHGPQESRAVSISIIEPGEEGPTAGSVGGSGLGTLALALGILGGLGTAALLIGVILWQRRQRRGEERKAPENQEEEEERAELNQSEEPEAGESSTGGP
Chain of RAGE (Q15109 23-404): as the sequence (Q15109 23-404 limits assumed) above

Molecule: α-RAGE Abcam (Abcam, ab37647) (antibody)
Kd [1]: 54.1 nM
koff [1]: 4.46 s⁻¹
kon [1]: 8.2e+07 M⁻¹ s⁻¹
Kd [2]: 4.31 nM
koff [2]: 0.00077 s⁻¹
kon [2]: 180000 M⁻¹ s⁻¹

B1: murine BG7 anti-RAGE monoclonal antibody (antibody, V domains shown)
VH: EVKLDETGGGLVQPGRPMKLSCIASGFTLSDYWMNWVRQSPEKGLEWVAQIRNRPYNFETLYSDSVKGRFIISRDDSKNSVYLQMDNLGPDDSGIYYCSSYRYGLAYWGQGTLVTVSA
VL: DILLTQSPAILSVSPGERVSISCRASQTIDKRIHWYQQRTNGSPRLLIKYMSESISGTPSRFSGSGSGTDFTLTINSVESEDIAVYYCQQTNYWPITFGSGTKLELK
notes: Murine hybridoma antibody
Kd [3]: 410 nM
koff [3]: 0.02 s⁻¹
kon [3]: 49000 M⁻¹ s⁻¹
EC50 (read off the curve) [4]: ~0.02 µg/mL

B3: murine IG7 anti-RAGE monoclonal antibody (antibody, V domains shown)
VH: EVKLDETGGGLVQPGRPMKLSCIASGFTLSDYWMNWVRQSPEKGLEWVAQIRNRPYNFETLYSDSVKGRFIISRDDSKNSVYLQMDNLGPDDSGIYYCSSYRYGLAYWGQGTLVTVSA
VL: DILLTQSPAILSVSPGERVSISCRASQTIDKRIHWYQQRTNGSPRLLIKYMSESISGTPSRFSGSGSGTDFTLTINSVESEDIAVYYCQQTNYWPITFGSGTKLELK
notes: Same VH and VL as BG7; also called ID7
Kd [3]: 860 nM
koff [3]: 0.00326 s⁻¹
kon [3]: 3790 M⁻¹ s⁻¹
EC50 (read off the curve) [4]: ~0.02 µg/mL

B4: murine BC3 anti-RAGE monoclonal antibody (antibody, part only; not given: Light chain variable region, V domains shown, part only)
VH: QVQLKQSGPGLVQPSQSLSITCTVSGFSLTNYGVHWVRQSPGKGLEWLGVIWTGGNTDYNAAFISRLSITKDNSKSQVFFKMNSLQANDTAIYYCARNLRGGYYGAWFAYWGQGTLVTVSA
Kd [6]: 890 nM
koff [6]: 0.00333 s⁻¹
kon [6]: 3720 M⁻¹ s⁻¹

B8: murine HA9 (mHA9) anti-RAGE monoclonal antibody (antibody, V domains shown)
VH: EVKLVETGGGLVQPGRPMKLSCVASGFTLSDHWMNWVRQSPEKGLEWVAQIRNRPYKFEKYYSDSVKGRFTISRDDSKNSVYLQMNNLRAEDMGIYYCSSYRYGLAYWGQGTLVTVST
VL: DNLLTQSPAILSVSPGERVSFSCRASQTIDTRIHWYQQRKNGSPRLLIRYISESLSGIPSRFSGSGSGTEFTLTINSVESEDIADYYCQQTESWPITFGSGTKLEIK
notes: Murine hybridoma antibody, purified on protein G; also called HA9 clone
Kd [3]: 720 nM
koff [3]: 0.0033 s⁻¹
EC50 (read off the curve) [4]: ~0.01 µg/mL

The remaining lines, values ahead:

Kd [5]: 607 nM
koff [5]: 0.0028 s⁻¹
B2: Anti-BG7 (Chimeric) (antibody, V domains shown)
VH: EVKLDETGGGLVQPGRPMKLSCIASGFTLSDYWMNWVRQSPEKGLEWVAQIRNRPYNFETLYSDSVKGRFIISRDDSKNSVYLQMDNLGPDDSGIYYCSSYRYGLAYWGQGTLVTVSA
VL: DILLTQSPAILSVSPGERVSISCRASQTIDKRIHWYQQRTNGSPRLLIKYMSESISGTPSRFSGSGSGTDFTLTINSVESEDIAVYYCQQTNYWPITFGSGTKLELK
notes: also called hBG7; chimeric BG7

Kd [5]: 320 nM
koff [5]: 0.0095 s⁻¹
B5: Anti-CG7 (Chimeric) (antibody, V domains shown)
VH: QVQLKQSGPGLVQPSQSLSITCTVSGFSLTNYGVHWVRQSPGKGLEWLGVIWTGGNTDYNAAFISRLSITKDNSKSQVFFKMNSLQANDTAIYYCARNLRGGYYGAWFAYWGQGTLVTVSA
VL: DVVMTQTPLSLPVSLGDQASISCRSSQTLVHSNGNTYLHWYLQKPGQSPKLLIYKVSNRFSGVPDRFTGSGSGTDFTLKISRVEAEDLGVYFCSQSTHVPPLTFGAGTKLELK
notes: also called hCG7; chimeric CG7

Kd [3]: 296 nM
koff [3]: 0.00901 s⁻¹
kon [3]: 30000 M⁻¹ s⁻¹
B6: murine CG7 (mCG7) anti-RAGE monoclonal antibody (antibody, V domains shown)
VH: QVQLKQSGPGLVQPSQSLSITCTVSGFSLTNYGVHWVRQSPGKGLEWLGVIWTGGNTDYNAAFISRLSITKDNSKSQVFFKMNSLQANDTAIYYCARNLRGGYYGAWFAYWGQGTLVTVSA
VL: DVVMTQTPLSLPVSLGDQASISCRSSQTLVHSNGNTYLHWYLQKPGQSPKLLIYKVSNRFSGVPDRFTGSGSGTDFTLKISRVEAEDLGVYFCSQSTHVPPLTFGAGTKLELK
notes: Murine hybridoma antibody

staining after Abcam antibody pre-blocking (RAGE; Abcam antibody 20 μg/ml pre-incubation): did not result in a decrease
staining after N16 pre-blocking (RAGE; N16 20 μg/ml pre-incubation): unaffected
B7: CG7: anti-RAGE antibody clone raised against RAGE peptide aa 39-65 (antibody, V domains shown)
VH: QVQLKQSGPGLVQPSQSLSITCTVSGFSLTNYGVHWVRQSPGKGLEWLGVIWTGGNTDYNAAFISRLSITKDNSKSQVFFKMNSLQANDTAIYYCARNLRGGYYGAWFAYWGQGTLVTVSA
VL: DVVMTQTPLSLPVSLGDQASISCRSSQTLVHSNGNTYLHWYLQKPGQSPKLLIYKVSNRFSGVPDRFTGSGSGTDFTLKISRVEAEDLGVYFCSQSTHVPPLTFGAGTKLELK

Kd [7]: 203 nM
koff [7]: 0.0032 s⁻¹
B9: chimeric HA9 (hHA9) anti-RAGE antibody (antibody, V domains shown)
VH: EVKLVETGGGLVQPGRPMKLSCVASGFTLSDHWMNWVRQSPEKGLEWVAQIRNRPYKFEKYYSDSVKGRFTISRDDSKNSVYLQMNNLRAEDMGIYYCSSYRYGLAYWGQGTLVTVST
VL: DNLLTQSPAILSVSPGERVSFSCRASQTIDTRIHWYQQRKNGSPRLLIRYISESLSGIPSRFSGSGSGTEFTLTINSVESEDIADYYCQQTESWPITFGSGTKLEIK
notes: Chimeric ('chimeric humanised format') version of HA9 made in HEK293 by Absolute Antibody
